Data as given in patent US20200339702A1 (ULTRAHUMAN THIRTEEN, published 2020).

T1: rhesus monkey ERBB3 human Fc tagged recombinant protein (rhesus monkey (Macaca mulatta), UniProt P21860 20-643 (human entry), limits assumed)
T1 construct: also called rhesus ERBB3-Fc; rhERBB3
T1 chain: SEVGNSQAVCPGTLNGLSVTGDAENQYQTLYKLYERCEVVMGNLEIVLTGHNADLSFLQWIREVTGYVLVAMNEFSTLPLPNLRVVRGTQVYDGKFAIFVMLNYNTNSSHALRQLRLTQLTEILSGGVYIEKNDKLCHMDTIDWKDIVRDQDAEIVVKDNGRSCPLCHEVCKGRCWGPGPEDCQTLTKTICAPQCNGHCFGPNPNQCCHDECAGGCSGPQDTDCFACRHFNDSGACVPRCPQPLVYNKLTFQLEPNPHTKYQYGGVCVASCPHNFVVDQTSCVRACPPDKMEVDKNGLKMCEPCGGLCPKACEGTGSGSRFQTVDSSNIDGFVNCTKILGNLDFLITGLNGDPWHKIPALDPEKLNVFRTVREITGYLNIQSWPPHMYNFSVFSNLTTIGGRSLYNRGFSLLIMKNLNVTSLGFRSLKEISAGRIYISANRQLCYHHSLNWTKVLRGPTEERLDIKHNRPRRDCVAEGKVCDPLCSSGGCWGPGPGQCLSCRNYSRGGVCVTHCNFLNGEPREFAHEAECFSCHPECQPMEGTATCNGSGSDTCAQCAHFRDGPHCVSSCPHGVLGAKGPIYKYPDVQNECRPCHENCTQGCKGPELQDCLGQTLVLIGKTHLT

T2: rhesus ERBB3 on transiently transfected HEK-293 cells (rhesus monkey (Macaca mulatta), UniProt P21860 20-1342 (human entry))
T2 construct: also called rhesus ERBB3+ HEK-293 cells
T2 chain: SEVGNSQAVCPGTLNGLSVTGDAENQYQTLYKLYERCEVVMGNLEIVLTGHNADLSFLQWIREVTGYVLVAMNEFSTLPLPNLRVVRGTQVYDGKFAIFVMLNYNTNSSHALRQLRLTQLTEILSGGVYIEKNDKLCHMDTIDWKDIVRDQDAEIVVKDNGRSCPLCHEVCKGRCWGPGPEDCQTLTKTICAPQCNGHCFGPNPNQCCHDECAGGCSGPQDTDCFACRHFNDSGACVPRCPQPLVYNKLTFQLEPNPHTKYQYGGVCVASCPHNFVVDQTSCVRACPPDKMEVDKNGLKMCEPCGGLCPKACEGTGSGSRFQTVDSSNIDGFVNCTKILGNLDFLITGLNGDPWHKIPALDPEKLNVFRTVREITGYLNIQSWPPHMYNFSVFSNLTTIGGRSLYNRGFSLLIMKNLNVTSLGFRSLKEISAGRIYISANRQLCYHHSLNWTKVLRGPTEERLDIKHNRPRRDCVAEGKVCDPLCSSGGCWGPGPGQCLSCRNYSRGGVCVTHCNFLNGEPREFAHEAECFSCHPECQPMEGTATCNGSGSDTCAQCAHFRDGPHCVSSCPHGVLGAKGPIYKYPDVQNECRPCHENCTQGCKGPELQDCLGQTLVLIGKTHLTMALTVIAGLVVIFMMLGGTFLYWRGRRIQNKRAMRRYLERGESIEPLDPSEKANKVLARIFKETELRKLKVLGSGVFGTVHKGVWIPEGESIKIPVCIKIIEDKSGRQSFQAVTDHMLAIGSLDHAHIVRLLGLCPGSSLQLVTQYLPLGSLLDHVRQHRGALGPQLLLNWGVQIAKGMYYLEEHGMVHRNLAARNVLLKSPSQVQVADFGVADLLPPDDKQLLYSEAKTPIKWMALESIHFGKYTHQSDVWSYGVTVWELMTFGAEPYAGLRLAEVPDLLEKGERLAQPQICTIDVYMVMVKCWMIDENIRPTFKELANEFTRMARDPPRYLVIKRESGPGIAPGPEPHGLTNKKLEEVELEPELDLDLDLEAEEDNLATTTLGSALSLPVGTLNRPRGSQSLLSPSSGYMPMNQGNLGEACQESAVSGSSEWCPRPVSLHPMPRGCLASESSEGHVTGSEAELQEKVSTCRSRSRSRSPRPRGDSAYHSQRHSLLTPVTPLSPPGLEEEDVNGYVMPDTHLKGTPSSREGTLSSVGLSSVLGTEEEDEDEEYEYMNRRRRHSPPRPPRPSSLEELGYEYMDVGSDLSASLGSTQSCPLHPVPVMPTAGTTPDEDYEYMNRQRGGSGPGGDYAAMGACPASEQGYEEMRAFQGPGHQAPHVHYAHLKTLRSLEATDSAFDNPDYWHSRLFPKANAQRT


Legend:
[1] = target: T3, human insulin (human, UniProt P01308 25-54; P01308 90-110, limits assumed); experiment: development risk ELISA on insulin
T3 construct: Off-target protein in the development risk (polyreactivity) ELISA
T3 sequence (P01308 25-54 limits assumed, chain 1 of 2): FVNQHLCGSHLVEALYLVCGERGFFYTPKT
T3 sequence (P01308 90-110 limits assumed, chain 2 of 2): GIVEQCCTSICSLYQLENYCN

[2] = target: T1, rhesus monkey ERBB3 human Fc tagged …; experiment: direct binding ELISA on coated rhesus ERBB3-Fc, IgG1 titrated
Description: (§1) Binding and cross-reactivity of the lead panel to the recombinant proteins was initially assessed by binding ELISA. The human ERBB3 human Fc tagged recombinant protein and the rhesus monkey ERBB3 human Fc tagged recombinant protein were coated to the surface of MaxiSorp™ flat-bottom 96 well plate at 1 μg/ml. The purified IgG samples were titrated in two fold serial dilutions starting from 500 nM to 0.008 nM and allowed to bind to the coated antigens. The Fabs were detected using mouse anti-c-myc antibody followed by donkey anti-mouse IgG conjugated to horseradish peroxidase. The IgGs were detected using the mouse anti-human IgG conjugated to horseradish peroxidase. Binding signals were visualized with 3,3′,5,5′-Tetramethylbenzidine Substrate Solution (TMB) and the absorbance measured at 450 nm.

[3] = target: T2, rhesus ERBB3 on transiently transfected …; experiment: flow cytometry, rhesus ERBB3-transfected HEK-293 cells, IgG1 titrated
Description: (§2) Purified IgGs were tested in FACs for binding to human and rhesus monkey ERBB3 expressed on transiently transfected HEK-293 cells and HEK-293 wild-type cells. The IgG samples were titrated in three-fold serial dilutions starting at 500 nM to 0.008 nM. Binding of IgGs was detected with a mouse anti-human IgG conjugated to FITC. Results were analyzed by examining the Mean Fluorescence Intensity (MFI) of 10000 cells per sample in the BL-1 channel detector of a flow cytometer (Attune™ NxT Acoustic Focusing Cytometer, Invitrogen/ThermoFisher Scientific).

[4] = target: T4, human ERBB3 His tagged, monomeric (human, UniProt P21860 20-643, biotinylated in the Alphascreen assays (sites not given)); experiment: Alphascreen competition in solution, competitor h24C05 IgG1, biotinylated human ERBB3-His
T4 construct: Used unbiotinylated as Biacore analyte and biotinylated in Alphascreen; treated as one molecule; also called human ERBB3-His (Acrobiosystems); biotinylated monomeric human ERBB3

[5] = target: T5, human ERBB3 human Fc tagged recombinant protein (human, UniProt P21860 20-643); experiment: direct binding ELISA on coated human ERBB3-Fc, IgG1 titrated
T5 construct: also called human ERBB3-Fc; huERBB3
Description: as §1

[6] = target: T6, human ERBB3 on transiently transfected HEK-293 cells (human, UniProt P21860 20-1342); experiment: flow cytometry, human ERBB3-transfected HEK-293 cells, IgG1 titrated
T6 construct: also called human ERBB3+ HEK-293 cells
Description: as §2

Binder | binding score [1] | binding result [2] | binding result [3] | IC50 (read off the curve) [4] | EC50 (read off the curve) [5] | EC50 (read off the curve) [2] | binding result [5] | binding result [6] | binding result [4] | EC50 (read off the curve) [6] | EC50 (read off the curve) [3]
15G11-DI1 IgG1 (antibody, V domains shown, Human IgG1 format, human Ckappa) VH: QVQLVESGGGLVKPGGSLRLSCAASGFTFSDYGMSWVRQAPGKGLEWVSTISDSGSYTYYPDSVKGRFTISRDNAKNSLYLQMNSLRAEDTAVYYCARELGDYDGFDYWGQGTLVTVSS VL: DIQMTQSPSSLSASVGDRVTITCRASQEISSYLSWYQQKPGKAPKLLIYAASSLDTGVPSRFSGSGSGTDFTLTISSLQPEDFATYYCLQYDSTPYTFGGGTKVEIK | < 10 | binds | binds | ~0.5 nM | – | – | – | – | – | – | –
15G11-DI8 IgG1 (antibody, V domains shown, Human IgG1 format, human Ckappa) VH: QVQLVESGGGLVKPGGSLRLSCAASGFTFSDYSMSWIRQAPGKGLEWVSTISDSGTYTYYPDSVKGRFTISRDNAKNSLYLQMNSLRAEDTAVYYCAREWGDYDGFDFWGQGTLVTVSS VL: DIQMTQSPSSLSASVGDRVTITCRASQEISTYLSWYQQKPGKAPKLLIYAASSLDTGVPSRFSGSGSGTDFTLTISSLQPEDFATYYCLQYDSSPYTFGGGTKVEIK | < 10 | binds | binds | – | – | – | binds | binds | binds | – | –
15G11-DI4 IgG1 (antibody, V domains shown, Human IgG1 format, human Ckappa) VH: QVQLVESGGGLVKPGGSLRLSCAASGFTFSDYGMSWVRQAPGKGLEWVSTISDSGSYTYYPDSVKGRFTISRDNAKNSLYLQMNSLRAEDTAVYYCARELGDYDGFDYWGQGTLVTVSS VL: DIQMTQSPSSLSASVGDRVTITCRASQEISTYLSWYQQKPGKAPKLLIYAASSLDTGVPSRFSGSGSGTDFTLTISSLQPEDFATYYCLQYDSSPYTFGGGTKVEIK | < 10 | binds | binds | – | – | – | binds | binds | binds | – | –
15G11-DI6 IgG1 (antibody, V domains shown, Human IgG1 format, human Ckappa) VH: QVQLVESGGGLVKPGGSLRLSCAASGFTFSDYSMSWIRQAPGKGLEWVSTISDSGTYTYYPDSVKGRFTISRDNAKNSLYLQMNSLRAEDTAVYYCAREWGDYDGFDFWGQGTLVTVSS VL: DIQMTQSPSSLSASVGDRVTITCRASQEISTYLSWYQQKPGKAPKLLIYAASSLDTGVPSRFSGSGSGTDFTLTISSLQPEDFATYYCLQYDSTPYTFGGGTKVEIK | < 10 | binds | – | – | – | – | – | – | – | ~1 nM | ~0.3 nM

Results, then the binder that gave them:

binding score [1] | binding result [2] | binding result [3] | IC50 (read off the curve) [4] | EC50 (read off the curve) [5] | EC50 (read off the curve) [2] | binding result [5] | binding result [6] | binding result [4] | EC50 (read off the curve) [6] | EC50 (read off the curve) [3] | Binder
< 10 | – | binds | – | ~0.2 nM | ~0.2 nM | – | – | – | – | – | 15G11-DI5 IgG1 (antibody, V domains shown, Human IgG1 format, human Ckappa) VH: QVQLVESGGGLVKPGGSLRLSCAASGFTFSDYSMSWIRQAPGKGLEWVSTISDSGTYTYYPDSVKGRFTISRDNAKNSLYLQMNSLRAEDTAVYYCAREWGDYDGFDFWGQGTLVTVSS VL: DIQMTQSPSSLSASVGDRVTITCRASQEISSYLSWYQQKPGKAPKLLIYAASSLDTGVPSRFSGSGSGTDFTLTISSLQPEDFATYYCLQYDSTPYTFGGGTKVEIK
< 10 | binds | binds | – | – | – | binds | binds | binds | – | – | 15G11-DI3 IgG1 (antibody, V domains shown, Human IgG1 format, human Ckappa) VH: QVQLVESGGGLVKPGGSLRLSCAASGFTFSDYGMSWVRQAPGKGLEWVSTISDSGSYTYYPDSVKGRFTISRDNAKNSLYLQMNSLRAEDTAVYYCARELGDYDGFDYWGQGTLVTVSS VL: DIQMTQSPSSLSASVGDRVTITCRASQEISSYLSWYQQKPGKAPKLLIYAASSLDTGVPSRFSGSGSGTDFTLTISSLQPEDFATYYCLQYDSSPYTFGGGTKVEIK
< 10 | binds | binds | – | – | – | binds | binds | binds | – | – | 15G11-DI2 IgG1 (antibody, V domains shown, Human IgG1 format, human Ckappa) VH: QVQLVESGGGLVKPGGSLRLSCAASGFTFSDYGMSWVRQAPGKGLEWVSTISDSGSYTYYPDSVKGRFTISRDNAKNSLYLQMNSLRAEDTAVYYCARELGDYDGFDYWGQGTLVTVSS VL: DIQMTQSPSSLSASVGDRVTITCRASQEISTYLSWYQQKPGKAPKLLIYAASSLDTGVPSRFSGSGSGTDFTLTISSLQPEDFATYYCLQYDSTPYTFGGGTKVEIK
< 10 | – | – | – | – | – | – | – | – | – | – | 15G11-DI11 IgG1 (antibody, V domains shown, Human IgG1 format, human Ckappa) VH: QVQLVESGGGLVKPGGSLRLSCAASGFTFSDYGMSWVRQAPGKGLEWVSTISDSGSYTYYPDSVKGRFTISRDNAKNSLYLQMNSLRAEDTAVYYCARELGDYDGFDYWGQGTLVTVSS VL: DIQMTQSPSSLSASVGDRVTITCRASQEASSYLSWYQQKPGKAPKLLAYAASSLDSGVPSRFSGSGSGTDFTLTISSLQPEDFATYYCLQYDSSPYTFGGGTKVEIK
– | binds | binds | – | – | – | binds | binds | binds | – | – | 15G11-DI10 IgG1 (antibody, V domains shown, Human IgG1 format, human Ckappa) VH: QVQLVESGGGLVKPGGSLRLSCAASGFTFSDYGMSWVRQAPGKGLEWVSTISDSGSYTYYPDSVKGRFTISRDNAKNSLYLQMNSLRAEDTAVYYCARELGDYDGFDYWGQGTLVTVSS VL: DIQMTQSPSSLSASVGDRVTITCRASQEISSYLSWYQQKPGKAPKLLAYAASSLDSGVPSRFSGSGSGTDFTLTISSLQPEDFATYYCLQYDSTPYTFGGGTKVEIK
